According to article PMC7686362, “Recent evolution of a TET-controlled and DPPA3/STELLA-driven pathway of passive DNA demethylation in mammals” (Nature Communications, 2020):

T1: mUHRF1 C-terminally tagged with GFP- and 6xHis-tag (mouse, UniProt Q8VDF2 1-782)
T1 construct: UHRF1, mouse (mUHRF1); also called UHRF1-eGFP; recombinant UHRF1-GFP; source: HEK 293T cells, purified (Ni-NTA beads); not shown: GFP, C-terminal, kept
T1 sequence (looked up): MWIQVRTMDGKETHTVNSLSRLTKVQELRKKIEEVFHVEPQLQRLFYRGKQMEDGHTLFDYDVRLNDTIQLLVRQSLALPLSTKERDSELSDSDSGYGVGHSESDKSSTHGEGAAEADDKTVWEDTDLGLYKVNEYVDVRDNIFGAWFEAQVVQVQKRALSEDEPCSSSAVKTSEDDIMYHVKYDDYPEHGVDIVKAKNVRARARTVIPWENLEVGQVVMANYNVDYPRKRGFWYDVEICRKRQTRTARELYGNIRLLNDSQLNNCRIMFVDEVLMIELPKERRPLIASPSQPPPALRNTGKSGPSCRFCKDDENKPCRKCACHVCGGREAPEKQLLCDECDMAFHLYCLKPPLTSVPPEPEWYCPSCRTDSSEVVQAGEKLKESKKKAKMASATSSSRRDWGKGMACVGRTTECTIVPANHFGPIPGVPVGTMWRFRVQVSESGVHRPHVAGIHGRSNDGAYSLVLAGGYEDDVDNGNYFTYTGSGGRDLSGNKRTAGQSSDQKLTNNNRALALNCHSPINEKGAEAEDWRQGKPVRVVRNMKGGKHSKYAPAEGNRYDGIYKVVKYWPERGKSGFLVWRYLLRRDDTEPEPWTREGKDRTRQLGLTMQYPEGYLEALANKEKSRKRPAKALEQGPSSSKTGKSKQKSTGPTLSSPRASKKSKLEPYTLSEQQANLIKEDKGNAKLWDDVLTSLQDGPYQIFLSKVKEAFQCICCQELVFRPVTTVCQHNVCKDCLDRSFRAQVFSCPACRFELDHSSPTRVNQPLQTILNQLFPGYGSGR


What was measured:
[1] = biological target: endogenous UHRF1-GFP (Uhrf1 locus tagged with GFP in mouse ESCs) (mouse (endogenous in J1 ESCs)) (UniProt Q8VDF2)
[2] = biological target: T1, mUHRF1 C-terminally tagged with GFP- …; assay: MST; 200 nM UHRF1-GFP-6xHis mixed with 0.15 nM to 5 µM GST-DPPA3, 30 min on ice; Monolith NT.115, 80% LED and 80% MST power; settings: both partners purified

Chain of DPPA3-KRR-mScarlet (K85E/R85E/R87E as printed) (Q8QZY3 whole entry K85E/R87E, stated change not applied): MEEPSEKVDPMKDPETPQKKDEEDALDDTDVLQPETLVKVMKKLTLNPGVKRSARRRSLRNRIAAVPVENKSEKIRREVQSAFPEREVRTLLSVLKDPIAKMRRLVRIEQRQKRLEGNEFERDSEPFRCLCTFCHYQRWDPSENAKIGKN

mobile fraction of UHRF1-GFP by RICS in live ESCs expressing DPPA3-KRR [1] | Kd [2] | Molecule
32.4% | – | DPPA3-KRR-mScarlet (K85E/R85E/R87E as printed) (from UniProt Q8QZY3 1-150) (natural protein)
– | 440 nM | GST-mDPPA3 wild-type (natural protein, mouse, UniProt Q8QZY3 1-150, looked up, DPPA3, mouse, fragment corresponding to the full-length protein amplified from mouse DPPA3 cDNA, in pGEX4T-3; also called GST-DPPA3 WT; D3^WT; source: E. coli BL21-CodonPlus, purified (Glutathione Sepharose, PD10 desalting)) MEEPSEKVDPMKDPETPQKKDEEDALDDTDVLQPETLVKVMKKLTLNPGVKRSARRRSLRNRIAAVPVENKSEKIRREVQSAFPKRRVRTLLSVLKDPIAKMRRLVRIEQRQKRLEGNEFERDSEPFRCLCTFCHYQRWDPSENAKIGKN
